B1: PS2 assembly domain (PS2^AD; residues 30 to 483), recombinant (domain or fragment, C. glutamicum, UniProt Q04985 30-483, looked up)
chain: AQETNPTFNITNGFNDADGSTIQPVGPVNHTEETLRDLTDSTGAYLEEFQNGTVEEIVEAYLQVQASADGFDPSEQAAYEAFEAARVRASQELAASAETITKTRESVAYALKVDQEATAAFEAYRNALRDAAISINPDGSINPDTSINLLIDAANAANRTDRAEIEDYAHLYTQTDIALETPQLAYAFQDLKALQAEVDADFEWLGEFGIDQEDGNYVQRYHLPAVEALKAEVDARVAAIEPLRADSIAKNLEAQKSDVLVRQLFLERATAQRDTLRVVEAIFSTSARYVELYENVENVNVENKTLRQHYSALIPNLFIAAVANISELNAADAEAAAYYLHWDTDLATNDEDEAYYKAKLDFAIETYAKILFNGEVWQEPLAYVQNLDAGARQEAADREAARAADEAYRAEQLRIAQEAADAQKAIAEALAKEAEGNNDNSSDNTETGSSDIGS
notes: PS2 (cspB) of C. glutamicum, residues 30 to 483; the membrane anchoring domain is replaced by a hexahistidine tag; Vector pASK-IBA3plus; also called recombinant soluble PS2^AD; plasmid A231; source: E. coli BL21 (DE3) cytoplasm, gel-like pelleted fraction, washed with 1% DDM and SEC buffer; not shown: hexahistidine, C-terminal, kept

Columns and labels:
[1] = biological target: PS2 S-layer protein, ex vivo S-layer fragments from C. glutamicum ATCC13032 icd::cspB (C. glutamicum); assay: cryo-EM structure; ex vivo PS2 S-layer fragments, 0.02% DDM added before plunging, tilted images at 15° and 30°, single-particle reconstruction with C6 symmetry; lattice of hexamers (C6) joined by trimeric (C3) contacts
[2] = biological target: the molecule itself; assay: negative-stain electron microscopy of isolated S-layer sheets; isolated S-layer sheets (cleared SDS extractions of C. glutamicum; washed recombinant sheets from E. coli); lattice seen in the power spectrum; sheets also kept after incubation with 10 mM EDTA

Molecule | stoichiometry N [1] | binding result [2]
PS2 S-layer protein, ex vivo S-layer fragments from C. glutamicum ATCC13032 icd::cspB (natural protein) | 6 | –
B1 | – | binds

— PMC12337289, “Cryo-EM structure and polar assembly of the PS2 S-layer of Corynebacterium glutamicum” (Proceedings of the National Academy of Sciences of the …, 2025)
